Assay results reported in paper PMC9253516.

Assays:
[1] = target: T1, Borealin (endogenous), Q53HL2; assay: LacO-LacI tethering assay, immunofluorescence in U-2 OS-LacO Haspin CM cells; settings: chain shown with the change, n = 21 (mutant), n = 22 (parent), red bar = mean, read off a plot
T1 chain: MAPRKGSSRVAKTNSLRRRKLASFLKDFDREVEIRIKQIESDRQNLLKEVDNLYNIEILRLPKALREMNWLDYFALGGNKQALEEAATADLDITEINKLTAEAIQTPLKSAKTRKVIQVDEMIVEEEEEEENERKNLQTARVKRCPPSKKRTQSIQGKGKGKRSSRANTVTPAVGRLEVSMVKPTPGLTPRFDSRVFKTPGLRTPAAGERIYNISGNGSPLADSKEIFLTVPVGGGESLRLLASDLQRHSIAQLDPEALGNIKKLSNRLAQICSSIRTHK

[2] = target: T2, Aurora B (endogenous), Q96GD4; assay: as above; settings: chain shown with the change, red bar = mean, read off a plot
T2 chain: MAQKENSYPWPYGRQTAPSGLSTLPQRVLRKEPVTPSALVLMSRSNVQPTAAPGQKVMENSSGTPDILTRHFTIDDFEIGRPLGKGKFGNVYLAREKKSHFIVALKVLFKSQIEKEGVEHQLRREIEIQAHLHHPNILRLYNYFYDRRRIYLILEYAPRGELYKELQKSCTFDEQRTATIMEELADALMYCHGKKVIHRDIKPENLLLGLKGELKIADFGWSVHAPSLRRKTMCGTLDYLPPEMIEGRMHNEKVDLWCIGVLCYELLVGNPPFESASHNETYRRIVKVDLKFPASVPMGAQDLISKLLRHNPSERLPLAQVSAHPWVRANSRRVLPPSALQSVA

B1: Sgo1_(130–280)-LacI-GFP, Q5FBB7 V188A; S189A; V190A; R191A (protein)
chain: RNLFVKDLPQIPLEETELPGQGESFQIEDQIPTIPQDTLGVDFDSGEAKSTDNVLPRTAAAASSLKKHCNSICQFDSLDDFETSHLAGKSFEFERVGFLDPLVNMHIPENVQHNACQWSKDQVNLSPKLIQPGTFTKTKEDILESKSEQTK
- response ([1]; parent: est. 1.2): 0.18 a.u.
- response ([2]; n = 22 (mutant), n = 20 (parent), parent: est. 0.85): 0.1 a.u.

B2: Sgo1_(159–240)-LacI-GFP, Q5FBB7 V188A; S189A; V190A; R191A (protein)
chain: QIPTIPQDTLGVDFDSGEAKSTDNVLPRTAAAASSLKKHCNSICQFDSLDDFETSHLAGKSFEFERVGFLDPLVNMHIPENV
- response ([1]; parent: est. 1.4): 0.25 a.u.
- response ([2]; n = 23 (mutant), n = 10 (parent), parent: est. 1.2): 0.15 a.u.
